# Measurements as given in PMC3046150.
# Experiments:
# [1] = target: p75 neurotrophin receptor (p75NTR), endogenous on rat cells (rat (endogenous in rat oligodendrocyte progenitor cells)) (UniProt P07174)
# [2] = target: human TrkA on BALB/C 3T3-hTrkA cells (human) (UniProt P04629)
# UniProt P04629, sequence (P04629 33-796): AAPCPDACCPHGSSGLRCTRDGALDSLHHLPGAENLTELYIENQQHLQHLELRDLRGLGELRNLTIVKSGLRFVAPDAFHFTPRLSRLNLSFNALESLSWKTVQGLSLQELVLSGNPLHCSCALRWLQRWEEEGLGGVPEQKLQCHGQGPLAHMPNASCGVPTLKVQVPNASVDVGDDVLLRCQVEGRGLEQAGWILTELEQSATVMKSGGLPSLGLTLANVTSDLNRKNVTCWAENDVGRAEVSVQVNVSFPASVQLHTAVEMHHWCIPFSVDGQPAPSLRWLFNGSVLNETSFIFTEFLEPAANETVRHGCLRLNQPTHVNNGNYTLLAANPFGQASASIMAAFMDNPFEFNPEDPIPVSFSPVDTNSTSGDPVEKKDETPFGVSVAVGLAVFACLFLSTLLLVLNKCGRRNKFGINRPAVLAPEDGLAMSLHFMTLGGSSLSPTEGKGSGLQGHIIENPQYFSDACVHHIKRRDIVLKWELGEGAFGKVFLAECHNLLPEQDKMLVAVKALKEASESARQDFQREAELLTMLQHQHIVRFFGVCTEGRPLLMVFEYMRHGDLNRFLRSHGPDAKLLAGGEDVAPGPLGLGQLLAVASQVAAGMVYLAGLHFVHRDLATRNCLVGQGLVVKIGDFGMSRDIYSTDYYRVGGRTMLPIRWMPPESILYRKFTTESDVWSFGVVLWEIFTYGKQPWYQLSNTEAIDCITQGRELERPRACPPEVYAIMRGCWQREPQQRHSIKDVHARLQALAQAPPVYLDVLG
# UniProt P07174, sequence (P07174 30-425): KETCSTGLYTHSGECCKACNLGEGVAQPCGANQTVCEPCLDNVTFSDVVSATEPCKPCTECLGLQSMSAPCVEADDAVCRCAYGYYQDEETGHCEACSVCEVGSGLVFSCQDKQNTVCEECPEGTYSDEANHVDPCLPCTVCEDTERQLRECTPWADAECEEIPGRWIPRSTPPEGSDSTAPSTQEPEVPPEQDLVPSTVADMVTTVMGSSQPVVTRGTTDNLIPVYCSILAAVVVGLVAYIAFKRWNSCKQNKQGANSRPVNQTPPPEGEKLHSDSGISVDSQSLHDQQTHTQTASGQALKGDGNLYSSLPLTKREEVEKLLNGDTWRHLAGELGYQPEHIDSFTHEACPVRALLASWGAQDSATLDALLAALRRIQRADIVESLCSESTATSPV
"phosphorylation of c-jun at Ser63 in hippocampal cells (p75NTR dependent activation of the jnk kinase), 100 ng/ml (% reduction against hNGF) [1]","phosphorylation of TrkA residue Tyr490 in BALB/C 3T3-hTrkA cells, 100 ng/ml, Western blot with site-specific anti-phosphoTrkA antibody (% reduction against hNGF) [2]",Substance
30,70,"hNGFR100E, mature human NGF with the substitution R100E (from UniProt P01138 122-241) (ligand)"
–,70,"hNGFR100W, mature human NGF with the HSAN V substitution R100W (from UniProt P01138 122-241) (ligand)"
